Results reported in paper PMC11032457 (Proceedings of the National Academy of Sciences of the …, 2024).

Experiments:
TK0186 protein = biological target: T1, TK0186 protein (Thermococcus kodakarensis, UniProt Q5JFM8); assay: glycine formation, HPLC; assay type: biochemical; details: amino donor; 10 mM glyoxylate; 20 μM PLP; 50 mM HEPES pH 7.5; 80 °C
T1 sequence (Q5JFM8 1-417): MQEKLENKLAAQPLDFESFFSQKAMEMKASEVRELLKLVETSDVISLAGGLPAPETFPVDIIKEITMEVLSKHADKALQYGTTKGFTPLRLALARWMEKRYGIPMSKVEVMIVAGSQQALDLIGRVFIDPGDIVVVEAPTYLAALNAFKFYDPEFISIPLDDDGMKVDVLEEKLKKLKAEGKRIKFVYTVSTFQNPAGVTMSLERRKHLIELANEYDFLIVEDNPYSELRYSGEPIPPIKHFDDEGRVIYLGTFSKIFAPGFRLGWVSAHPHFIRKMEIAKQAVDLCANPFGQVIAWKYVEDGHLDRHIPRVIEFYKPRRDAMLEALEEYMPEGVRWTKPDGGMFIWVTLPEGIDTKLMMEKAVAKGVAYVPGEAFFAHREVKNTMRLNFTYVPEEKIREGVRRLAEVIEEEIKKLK

TK1094 protein = biological target: T2, TK1094 protein (Thermococcus kodakarensis, UniProt Q5JE21); assay: glycine formation, HPLC; assay type: biochemical; details: amino donor; 10 mM glyoxylate; 20 μM PLP; 50 mM HEPES pH 7.5; 80 °C
T2 sequence (Q5JE21 1-399): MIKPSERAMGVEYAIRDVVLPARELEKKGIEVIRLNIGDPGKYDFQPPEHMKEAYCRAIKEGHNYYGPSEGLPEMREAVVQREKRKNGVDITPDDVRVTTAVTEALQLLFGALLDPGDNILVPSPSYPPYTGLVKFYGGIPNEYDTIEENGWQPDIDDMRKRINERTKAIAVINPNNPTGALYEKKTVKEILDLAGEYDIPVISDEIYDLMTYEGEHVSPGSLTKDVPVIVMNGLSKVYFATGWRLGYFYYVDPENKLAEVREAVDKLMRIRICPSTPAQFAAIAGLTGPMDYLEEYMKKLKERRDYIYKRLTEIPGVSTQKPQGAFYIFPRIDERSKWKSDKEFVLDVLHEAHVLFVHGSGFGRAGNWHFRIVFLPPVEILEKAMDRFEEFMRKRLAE

purified protein [1] = substrate: O=C[C@H](O)[C@H](O)COP(=O)(O)O; assay: purified protein; details: 80 °C, 50 mM MES-NaOH pH 6.5, 10 mM MgCl2
purified protein [2] = substrate: O=C(COP(=O)(O)O)[C@H](O)[C@H](O)COP(=O)(O)O; assay: purified protein; details: 80 °C, 50 mM MES-NaOH pH 6.5, 10 mM MgCl2
purified protein [3] = substrate: O=C(CO)[C@H](O)[C@H](O)COP(=O)(O)O; assay: purified protein; details: 80 °C, 50 mM MES-NaOH pH 6.5, 10 mM MgCl2
purified protein [4] = substrate: O=C(O)COP(=O)(O)O; assay: purified protein; details: 80 °C
purified protein [5] = substrate: O=C(O)C(=O)CO; assay: purified protein; details: reduction, 0.3 mM NADH, 85 °C, 50 mM Tris pH 7.5
purified protein [6] = substrate: O=C(O)CO; assay: purified protein; details: oxidation, 10 mM NAD+, 80 °C, 50 mM Tris pH 7.5
purified protein [7] = substrate: O=CC(=O)O; assay: purified protein; details: reduction, 0.3 mM NADH, 85 °C, 50 mM Tris pH 7.5
purified protein [8] = substrate: C[C@@H](O)C(=O)O; assay: purified protein; details: oxidation, 10 mM NAD+, 80 °C, 50 mM Tris pH 7.5
purified protein [9] = substrate: CC[C@H](C)C(=O)C(=O)O; assay: purified protein; details: reduction, 0.3 mM NADH, 85 °C, 50 mM Tris pH 7.5
purified protein [10] = substrate: CCCC(=O)C(=O)O; assay: purified protein; details: reduction, 0.3 mM NADH, 85 °C, 50 mM Tris pH 7.5
purified protein [11] = substrate: CC(C)C(=O)C(=O)O; assay: purified protein; details: reduction, 0.3 mM NADH, 85 °C, 50 mM Tris pH 7.5
purified protein [12] = substrate: CC(=O)C(=O)O; assay: purified protein; details: reduction, 0.3 mM NADH, 85 °C, 50 mM Tris pH 7.5
[13] = 50 mM MES-NaOH pH 6.5, 10 mM MgCl2
[14] = 50 mM MES-NaOH pH 7.0, 10 mM MgCl2

**Q.** For `C[C@H](N)C(=O)O` [L-alanine], which “glycine formation, HPLC” value (TK0186 protein) is on record?
**A.** The value was “the most preferred amino donor was L-alanine (Fig. 3E)”.

**Q.** And the “glycine formation, HPLC” value (TK1094 protein)?
**A.** Its value is “In the case of the TK1094 protein, activity was observed with L-alanine and L-glutamate”.

B1: TK2301 protein (Thermococcus kodakarensis KOD1) (protein)
chain: MTIKAISVDIDGTITYPDRRLHEKALEAIRLAESLGVPVMLVTGNTVQFGEAAAILIGTSGPVVGEDGGALSIKEGKLRKRVYLTNMDEEWILWGELKKRYPEALLSFSMPERKAGLVVLRTVPVKAVRELIKELGLNLIAVDSGFAIHIKKPWINKGTGIEKACEYLGISPKEVAHIGDGENDLDAFGVVGYRVAVAQAPESLKEKADYVTTKPYGEGGAEAIEHILRKFGYLPEEKT
**Q.** B1 was tested. Which Km (purified protein [1]) did it give?
**A.** The Km was 1250 ± 280 µM.

**Q.** What about the kcat (purified protein [1]) of the same molecule?
**A.** Its kcat is 17.1 ± 1 s⁻¹.

**Q.** And the kcat/Km (purified protein [1])?
**A.** Its kcat/Km is 13700 M⁻¹ s⁻¹.

**Q.** What about the Km (purified protein [2]) of the same molecule?
**A.** The Km was 238 ± 44 µM.

**Q.** What about the kcat (purified protein [2]) of the same molecule?
**A.** Its kcat is 30.1 ± 1.3 s⁻¹.

**Q.** What about the kcat/Km (purified protein [2]) of the same molecule?
**A.** Its kcat/Km is 126000 M⁻¹ s⁻¹.

**Q.** What about the Km (purified protein [3]) of the same molecule?
**A.** Its Km is 979 ± 157 µM.

**Q.** And the kcat (purified protein [3])?
**A.** The kcat was 16.3 ± 0.5 s⁻¹.

**Q.** And the kcat/Km (purified protein [3])?
**A.** Its kcat/Km is 16600 M⁻¹ s⁻¹.

**Q.** What about the Km (purified protein [4]; [13]) of the same molecule?
**A.** The Km was 1220 ± 90 µM.

**Q.** What about the kcat (purified protein [4]; [13]) of the same molecule?
**A.** The kcat was 21.2 ± 0.4 s⁻¹.

**Q.** What about the kcat/Km (purified protein [4]; [13]) of the same molecule?
**A.** The kcat/Km was 17400 M⁻¹ s⁻¹.

B2: TK1734 protein (2-PG phosphatase) (Thermococcus kodakarensis KOD1) (protein)
chain: MTRKIGIIFDMDGVIYRGSEPINGAKEVIEFLKERKIPFLFLTNNSTRDPAMYREKLLSMGIDVPEDVIVTSGLATRLYMEKHFEPGEVFVIGGKGLLREMERLGWGVVSLEDARKGAWKRIKHVVVGLDPELTYEKLKYGTLAIRNGASFIGTNPDTTYPAEEGLYPGAGAIIAALRASTDREPVIIGKPNEPAYEVVKDKLGDVEELWMVGDRLDTDIAFAKRFGMKAIMVLTGVSTLKDVAESGIKPNLVLPDVGELKRYLEAAL
**Q.** Which results are given for B2?
**A.** Km (purified protein [4]; [14]): 1750 ± 220 µM; kcat (purified protein [4]; [14]): 65.6 ± 2.5 s⁻¹; kcat/Km (purified protein [4]; [14]): 37500 M⁻¹ s⁻¹

B3: TK0683 protein (GLDH) (Thermococcus kodakarensis KOD1) (protein)
chain: MRPKVFITRAIPENGIEMLKEHFEVEVWPEEREIPREVLLKKVRDVDALVTMLSERIDSEVFDAAPRLRIVANYAVGYDNIDVEEATRRGIYVTNTPDVLTDATADFAWTLLLATARRLIEADHFTRSGEWKRRGIAWHPRWFLGYDVYGKTIGIVGFGRIGQAVARRARGFGMRILYYSRSRKPEAEKELGAEFRSLEDLLRESDFVVLAVPLTKETQYMINEERLRLMKKTAILVNIARGKVVDTKALMKALKEGWIAGAGLDVYEEEPYYNEELFSLKNVVLAPHIGSATYGAREGMAELVARNLIAFKNGEVPPTLVNKEVVKVRKPGF
**Q.** With B3 as the molecule, how does the Km (purified protein [5]) read?
**A.** Its Km is 310 ± 70 µM.

**Q.** And the kcat (purified protein [5])?
**A.** The kcat was 3130 ± 462 s⁻¹.

**Q.** And the kcat/Km (purified protein [5])?
**A.** The kcat/Km was 1e+07 M⁻¹ s⁻¹.

**Q.** And the Km (purified protein [6])?
**A.** Its Km is 440 ± 60 µM.

**Q.** And the kcat (purified protein [6])?
**A.** Its kcat is 0.213 ± 0.005 s⁻¹.

**Q.** What about the kcat/Km (purified protein [6]) of the same molecule?
**A.** The kcat/Km was 490 M⁻¹ s⁻¹.

**Q.** And the Km (purified protein [7])?
**A.** Its Km is 1490 ± 800 µM.

**Q.** What about the kcat (purified protein [7]) of the same molecule?
**A.** The kcat was 2030 ± 92 s⁻¹.

**Q.** What about the kcat/Km (purified protein [7]) of the same molecule?
**A.** The kcat/Km was 1.36e+06 M⁻¹ s⁻¹.

**Q.** And the Km (purified protein [8])?
**A.** The Km was 440 ± 60 µM.

**Q.** What about the kcat (purified protein [8]) of the same molecule?
**A.** The kcat was 0.105 ± 0.003 s⁻¹.

**Q.** And the kcat/Km (purified protein [8])?
**A.** Its kcat/Km is 240 M⁻¹ s⁻¹.

B4: TK0551 protein (GLDH candidate) (Thermococcus kodakarensis KOD1) (protein)
chain: MRPRVLVTFKMKSKPVEELKKYADVDFLLYPSVEELAEKIKDYDGLIVSPLNRVPREVIERAERLKVISCHSAGYDHVDVEAATKKGIYVTKVSGVLSEAVAEFAVGLTIALLRKFVYTDKLIRRGEWDSHAKIWSTFKDIETVYGKKVGILGMGAIGKAIARRMKAMGTEILYWSRSRKEDIEAEVGAKYLPLDEVLRESDIVILALPATPETYHIINEERIKLLEGKYLVNIGRGTLVDEKAVVKAIEEGRLKGYATDVFEKEPVTEHPLFKYEWETVLTPHHAGLSKEAMEDMGFQAVMNLLAVLRGEIPKDLVNREVVKVRPPEEVKML
**Q.** B4 was tested. Which Km (purified protein [5]) did it give?
**A.** Its Km is 3730 ± 250 µM.

**Q.** And the kcat (purified protein [5])?
**A.** The kcat was 104 ± 3 s⁻¹.

**Q.** And the kcat/Km (purified protein [5])?
**A.** The kcat/Km was 27900 M⁻¹ s⁻¹.

**Q.** And the Km (purified protein [9])?
**A.** The Km was 1930 ± 250 µM.

**Q.** And the kcat (purified protein [9])?
**A.** The kcat was 18.3 ± 2.2 s⁻¹.

**Q.** And the kcat/Km (purified protein [9])?
**A.** The kcat/Km was 9480 M⁻¹ s⁻¹.

**Q.** What about the Km (purified protein [6]) of the same molecule?
**A.** The Km was 24100 ± 1260 µM.

**Q.** What about the kcat (purified protein [6]) of the same molecule?
**A.** The kcat was 0.376 ± 0.009 s⁻¹.

**Q.** What about the kcat/Km (purified protein [6]) of the same molecule?
**A.** The kcat/Km was 15.6 M⁻¹ s⁻¹.

**Q.** And the Km (purified protein [7])?
**A.** The Km was 2870 ± 390 µM.

**Q.** What about the kcat (purified protein [7]) of the same molecule?
**A.** Its kcat is 186 ± 2 s⁻¹.

**Q.** What about the kcat/Km (purified protein [7]) of the same molecule?
**A.** The kcat/Km was 64800 M⁻¹ s⁻¹.

**Q.** And the Km (purified protein [10])?
**A.** Its Km is 1440 ± 90 µM.

**Q.** And the kcat (purified protein [10])?
**A.** The kcat was 14 ± 0.3 s⁻¹.

**Q.** What about the kcat/Km (purified protein [10]) of the same molecule?
**A.** Its kcat/Km is 9720 M⁻¹ s⁻¹.

**Q.** And the Km (purified protein [8])?
**A.** The Km was 9900 ± 1150 µM.

**Q.** What about the kcat (purified protein [8]) of the same molecule?
**A.** The kcat was 0.324 ± 0.013 s⁻¹.

**Q.** What about the kcat/Km (purified protein [8]) of the same molecule?
**A.** The kcat/Km was 32.7 M⁻¹ s⁻¹.

**Q.** What about the Km (purified protein [11]) of the same molecule?
**A.** The Km was 1900 ± 440 µM.

**Q.** And the kcat (purified protein [11])?
**A.** The kcat was 15.9 ± 2.2 s⁻¹.

**Q.** What about the kcat/Km (purified protein [11]) of the same molecule?
**A.** Its kcat/Km is 8370 M⁻¹ s⁻¹.

**Q.** And the Km (purified protein [12])?
**A.** Its Km is 6890 ± 810 µM.

**Q.** What about the kcat (purified protein [12]) of the same molecule?
**A.** The kcat was 12.4 ± 0.6 s⁻¹.

**Q.** What about the kcat/Km (purified protein [12]) of the same molecule?
**A.** Its kcat/Km is 1780 M⁻¹ s⁻¹.
